The source of these data is publication PMC10148881 (2023).

For orientation: Kd means the free concentration of one partner at which half of the binding sites on the other are occupied at equilibrium, for simple one-to-one binding.

T1: Pirh2 with Ile110 substituted with a negatively charged residue (human, UniProt Q96PM5 1-261)
T1 sequence (Q96PM5 whole entry, looked up) 1: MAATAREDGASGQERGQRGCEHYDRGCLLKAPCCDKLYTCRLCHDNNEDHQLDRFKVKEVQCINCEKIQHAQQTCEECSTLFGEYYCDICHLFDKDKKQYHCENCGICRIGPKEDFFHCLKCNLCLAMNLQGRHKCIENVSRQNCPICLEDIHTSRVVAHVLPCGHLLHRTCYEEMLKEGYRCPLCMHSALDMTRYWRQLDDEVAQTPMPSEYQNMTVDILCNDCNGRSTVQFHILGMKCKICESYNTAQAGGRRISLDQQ
T1 sequence (Q96PM5 whole entry, looked up) 2: T1 sequence (Q96PM5 whole entry, looked up) 1

T2: Pirh2 I107D (Homo sapiens)
T2 chain: T1 sequence (Q96PM5 whole entry, looked up) 1 with I107D

B1: Pirh2 NTD + RING (residues 1–189) (domain or fragment)
chain: MAATAREDGASGQERGQRGCEHYDRGCLLKAPCCDKLYTCRLCHDNNEDHQLDRFKVKEVQCINCEKIQHAQQTCEECSTLFGEYYCDICHLFDKDKKQYHCENCGICRIGPKEDFFHCLKCNLCLAMNLQGRHKCIENVSRQNCPICLEDIHTSRVVAHVLPCGHLLHRTCYEEMLKEGYRCPLCMHS

Changes are numbered by the printed parent chain. “And” between values parts separate entries of the source, which are not always exact repeats. Equal entries are not always repeated. Ends that are not written are not given here.

One test deals with unnamed. The test can be described thus: ITC. (ITC needs no label: the signal is the heat of the interaction.)
Consider B1, for which the dissociation constant (Kd) is 8.6 µM and 12 µM.

For a further test, the target named is T1, Pirh2 with Ile110 substituted with a …. Description: ITC.
As for YKTSAAAAAA, binding was characterised by a dissociation constant (Kd) of 40 µM.

A further test deals with B1. Description: ITC.
For AAAAAA, the Kd is 0.9 µM. Regarding YKTSAAA [three-Ala peptide], the equilibrium dissociation constant (Kd) is above 100 µM.

In another test the target is polyAla/C-degron peptide containing four Ala residues. The test can be described thus: ITC.
B1: the affinity, expressed as Kd, was 7.4 µM.

A further test has as its target polyAla/C-degron peptide containing five Ala residues. The test can be described thus: ITC.
B1 displayed a dissociation constant (Kd) of 2.5 µM.

In the next test the target is B1. The test can be described thus: ITC. The source holds these as a separate data set.
For YKTSAAGA, the Kd was 22 µM. The same measure, in the same setting: the value for YKTSAGAA was 2.3 µM; that for YKTSAAVA was 13 µM. Still for that read-out and setting: the value for YKTSAAAPAA [Ala6/C-degron peptide with Ala-3 substituted with proline] was 0.9 µM. Regarding YKTSAAPA, the Kd was determined as 26 µM.

As for YKTSAASAAA [Ala6/C-degron peptide with Ala-4 substituted with serine], the Kd amounted to 4.5 µM. On the same count and under the same terms, the result for YKTSAVAA reads 1.9 µM; that for YKTSTAAAAA [Ala6/C-degron peptide with the threonine mutation of Ala-6], 0.5 µM.

Consider YKTSAASA, for which the dissociation constant (Kd) was 20 µM. In the case of YKTSPAAA [Ala6/C-degron peptide with Ala-4 substituted with proline], the dissociation constant (Kd) turned out to be 57 µM. On to YKTSAAATAA [Ala6/C-degron peptide with the threonine mutation of Ala-3], for which the Kd was 0.7 µM. For YKTSASAA, the Kd is 3 µM. Same read-out and setting: the result for YKTSATAAAA [Ala6/C-degron peptide with the threonine mutation of Ala-5] reads 0.5 µM; that for YKTSAAAIAA [Ala6/C-degron peptide with Ala-3 substituted with isoleucine], 2.7 µM; that for YKTSAAAA, 0.8 µM. Still for that read-out and setting: the result for YKTSAAAAAG [Ala6/C-degron peptide with Ala-1 replaced with glycine] reads 23 µM. Still for that read-out and setting: the result for YKTSAAAAIA [Ala6/C-degron peptide with Ala-2 substituted with isoleucine] reads 13 µM.

For a further test, the target named is B1. Description: ITC. The source holds these as a separate data set.
As to YKTSAAAKAA [Ala6/C-degron peptide with Ala-3 substituted with lysine], the Kd turned out to be 2.1 µM. Still for that read-out and setting: the value for YKTSAAAPAA [Ala6/C-degron peptide with Ala-3 substituted with proline] was 0.5 µM. The same measure, in the same setting: the value for YKTSAAAIAA [Ala6/C-degron peptide with Ala-3 substituted with isoleucine] was 1.5 µM; that for YKTSAAAAIA [Ala6/C-degron peptide with Ala-2 substituted with isoleucine] was 10 µM.

The target in another test is T2, Pirh2 I107D. The test can be described thus: ITC.
Take YKTSAAAAAA (not fully specified): binding was put at a Kd of 9.1 µM.
